The results in this text go back to publication PMC9205782, “Identifying amyloid-related diseases by mapping mutations in low-complexity protein domains to pathologies” (Nature Structural & Molecular Biology, 2022).

In general, stoichiometry N refers to a count of units in the complex or per binding partner.

Data set [1] deals with the molecule itself. Briefly: thioflavin T fluorescence on cooling (reversible aggregation, phase separation); same sample concentrations as the aggregation assay; held at 37 °C, cooled to 4 °C for 60 minutes, warmed back to 37 °C.
Data set [2] deals with the molecule itself. Briefly: crystal structure; peptide microcrystals grown by hanging drop vapor diffusion; SGMGGIT: 0.1 M phosphate/citrate pH 4.2, 40% ethanol, 5% PEG 1000; SGMGCIT: 0.2 M sodium citrate, 0.1 M HEPES pH 7.5, 20% 2-propanol; GGYAGAS: 2.5 M NaCl, 100 mM sodium acetate pH 4.5, 0.2 M lithium sulfate; data at 100 K.
Data set [3] concerns the molecule itself. Briefly: X-ray fiber powder diffraction of aggregates; aggregated samples centrifuged, exchanged into water, dried between capillaries; cross-beta pattern.
Data set [4] concerns the molecule itself. Briefly: Western blot of tissue extracts; extracts of human liver tissue (three ASH, one HCC) on a gel, blotted with anti-cytokeratin 8 (C51).

B1: KRT8_(1–90), head domain of keratin-8, wild type, with N-terminal mCherry (domain or fragment, human)
chain: SIRVTQKSYKVSTSGPRAFSSRSYTSGPGSRISSSSFSRVGSSNFRGGLGGGYGGASGMGGITAVTVNQSLLSPLVLEVDPNIQAVRTQ
notes: keratin-8 (KRT8), human, head domain, residues 1-90 as stated; No removal of mCherry or the His tag is described; also called WT KRT8_(1-90); wild-type KRT8; source: bacterial cultures, purified (Ni-NTA)
Regarding B1, the binding result in data set [1] is recorded as “binds”.

B2: KRT8_(58–64) G62C segment SGMGCIT (peptide)
peptide: SGMGCIT
notes: G62C is found in people with cryptogenic liver disease; Crystallised as a class-2 parallel steric zipper with isopropanol; also called 58SGMGCIT64; KRT8-G62C segment; source: synthetic peptide, bought: GenScript
Turning to B2, the binding result in data set [2] is reported as “binds”.

B3: KRT8_(52–58)-G55A segment GGYAGAS (peptide)
peptide: GGYAGAS
notes: G55A is found in people with cryptogenic liver disease; Crystallised as an anti-parallel class-6 steric zipper; also called 52GGYAGAS58; source: synthetic peptide, bought: GenScript
For the protein B3, the binding result in data set [2] is on record as “binds”.

B4: KRT8_(1–90) Y54H with N-terminal mCherry (domain or fragment, human, UniProt P05787 1-90, looked up)
chain: MSIRVTQKSYKVSTSGPRAFSSRSYTSGPGSRISSSSFSRVGSSNFRGGLGGGHGGASGMGGITAVTVNQSLLSPLVLEVDPNIQAVRTQ
notes: keratin-8 (KRT8), human, head domain, residues 1-90, variant Y54H; Variant found in people with cryptogenic liver disease; source: bacterial cultures, purified (Ni-NTA)
On to B4, for which the binding result in data set [3] was “binds”.

B5: KRT8_(1–90) G62C with N-terminal mCherry (domain or fragment, human, UniProt P05787 1-90, looked up)
chain: MSIRVTQKSYKVSTSGPRAFSSRSYTSGPGSRISSSSFSRVGSSNFRGGLGGGYGGASGMGCITAVTVNQSLLSPLVLEVDPNIQAVRTQ
notes: keratin-8 (KRT8), human, head domain, residues 1-90, variant G62C; Variant found in people with cryptogenic liver disease; source: bacterial cultures, purified (Ni-NTA)
B5: the binding result in data set [1] was “binds”.

B6: KRT8_(1–90) G55A with N-terminal mCherry (domain or fragment, human, UniProt P05787 1-90, looked up)
chain: MSIRVTQKSYKVSTSGPRAFSSRSYTSGPGSRISSSSFSRVGSSNFRGGLGGGYAGASGMGGITAVTVNQSLLSPLVLEVDPNIQAVRTQ
notes: keratin-8 (KRT8), human, head domain, residues 1-90, variant G55A; Variant found in people with cryptogenic liver disease; source: bacterial cultures, purified (Ni-NTA)
On to B6, for which, in data set [3], the binding result is listed as “binds”.

B7: KRT8 in human liver tissue extracts (natural protein, human (endogenous in liver tissue), UniProt P05787 1-483, looked up)
chain: MSIRVTQKSYKVSTSGPRAFSSRSYTSGPGSRISSSSFSRVGSSNFRGGLGGGYGGASGMGGITAVTVNQSLLSPLVLEVDPNIQAVRTQEKEQIKTLNNKFASFIDKVRFLEQQNKMLETKWSLLQQQKTARSNMDNMFESYINNLRRQLETLGQEKLKLEAELGNMQGLVEDFKNKYEDEINKRTEMENEFVLIKKDVDEAYMNKVELESRLEGLTDEINFLRQLYEEEIRELQSQISDTSVVLSMDNSRSLDMDSIIAEVKAQYEDIANRSRAEAESMYQIKYEELQSLAGKHGDDLRRTKTEISEMNRNISRLQAEIEGLKGQRASLEAAIADAEQRGELAIKDANAKLSELEAALQRAKQDMARQLREYQELMNVKLALDIEIATYRKLLEGEESRLESGMQNMSIHTKTTSGYAGGLSSAYGGLTSPGLSYSLGSSFGSGAGSSSFSRTSSSRAVVVKKIETRDGKLVSESSDVLPK
notes: keratin-8 (KRT8), endogenous in human liver; monomer band at 52 KDa; also called keratin-8; cytokeratin 8; source: endogenous, extracts of human liver tissue (ASH or HCC)
As to B7, the “stoichiometry N” value in data set [4] amounted to 2.

B8: KRT8_(58–64) wild-type segment SGMGGIT (peptide)
peptide: SGMGGIT
notes: keratin-8 (KRT8), human, head domain segment, residues 58-64; Crystallised as an amyloid-like fibril of stacked identical strands (anti-parallel class-7 steric zipper) with PEG 1000 and ethanol; also called 58SGMGGIT64; source: synthetic peptide, bought: GenScript
With B8, the binding result in data set [2] is on record as “binds”.

B9: FUS_(1–214), wild type, with N-terminal mCherry (domain or fragment, human, UniProt P35637 1-214, looked up)
chain: MASNDYTQQATQSYGAYPTQPGQGYSQQSSQPYGQQSYSGYSQSTDTSGYGQSSYSSYGQSQNTGYGTQSTPQGYGSTGGYGSSQSSQSSYGQQSSYPGYGQQPAPSSTSGSYGSSSQSSSYGQPQSGSYSQQPSYGGQQQSYGQQQSYNPPQGYGQQNQYNSSSGGGGGGGGGGNYGQDQSSMSSGGGSGGGYGNQDQSGGGGSGGYGQQDRG
notes: FUS, human, residues 1-214; also called wild-type FUS; source: bacterial cultures, purified (Ni-NTA)
As for B9, in data set [1], the binding result was “binds”.
